Assay results taken from US9618511B2, “Methods and compositions for treating alzheimer's disease” (Eleanore Bennett Charitable Trust #2, priority 2008, dated 2017).

Biological target: T1, association between PDK1 and Akt1 (Mus musculus, UniProt Q9Z2A0)
T1 construct: These were relatively enriched with endogenous PDK; expressed in transfected cells; host or cells: mouse C2C12 myotubes infected with Adv WT-Akt; control C2C12 extracts as source of endogenous PDK1
T1 sequence (Q9Z2A0 1-559): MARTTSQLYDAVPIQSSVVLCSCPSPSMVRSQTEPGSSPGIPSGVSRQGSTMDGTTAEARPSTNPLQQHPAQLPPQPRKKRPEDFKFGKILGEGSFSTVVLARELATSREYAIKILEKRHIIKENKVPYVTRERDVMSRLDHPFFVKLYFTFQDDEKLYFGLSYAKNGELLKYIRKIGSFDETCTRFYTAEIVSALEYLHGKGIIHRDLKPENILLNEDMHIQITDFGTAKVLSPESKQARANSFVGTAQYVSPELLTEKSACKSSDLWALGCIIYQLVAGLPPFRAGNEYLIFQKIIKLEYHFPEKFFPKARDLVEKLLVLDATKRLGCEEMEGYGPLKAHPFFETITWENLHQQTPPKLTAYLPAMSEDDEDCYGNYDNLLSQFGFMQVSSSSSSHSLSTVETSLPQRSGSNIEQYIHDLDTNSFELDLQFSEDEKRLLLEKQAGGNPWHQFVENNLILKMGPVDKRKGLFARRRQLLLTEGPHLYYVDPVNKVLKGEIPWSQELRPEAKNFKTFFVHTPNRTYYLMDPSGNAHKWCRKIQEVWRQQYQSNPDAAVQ
Assay: PDK and Akt1 interaction assay (cell extracts, IP/western pull-down)
Assay type: binding, mouse (C2C12 myotubes)
Conditions: for association between Akt and PDK1 (co-immunoprecipitation): 5 μM, mixed cell extracts, 30 min at 30° C.
Experimental: Accordingly, the effect of Aβ on PDK/Akt interactions may be evaluated in any suitable in vitro assay. In some embodiments, PDK1 may be prepared from extracts of mouse C2C12 myotube cultures. To increase the amount of available Akt, this protein may be prepared from C2C12 myotubes that had previously been infected with an adenovirus expressing wild type Akt (Adv-wtAkt). In some embodiments, to measure the interaction between these proteins, the cell extracts above were mixed for 30 minutes at 30° C. either in the presence or absence of added 5 μM Aβ1-42. […] The inability of PDK1 to interact with its target Akt led to a decrease in Akt activation and a loss of the subsequent downstream phosphorylations (e.g., GSK3β peptide as in FIGS. 3A and 3C, not shown).
For cell-based interaction studies, intracellular Aβ42 production was induced by infecting C2C12 myotubes with Adv Aβ/TetOn. These cell extracts (100 μg) were used to IP endogenous Akt, and from this pull-down, determine the levels of associated PDK by western blot. The in vitro interaction study involved first enriching for Akt through viral-mediated expression of WT-Akt. Akt-enriched/PDK-depleted extract was then prepared by removing the PDK, via immunoprecipitation, from the Akt-enriched cell extract. Akt-depleted extracts were prepared from control extracts by pre-immunoprecipitating Akt. These were relatively enriched with endogenous PDK. The enrichments and depletions were confirmed by western blot analysis. The interaction assay contained a mixture of 100 μg Akt-enriched and 100 μg control cell extract in the presence or absence of Aβ42 (up to 10 μM). The mixtures were incubated for 30 minutes at 30° C., followed by overnight incubation at 4° C. with goat anti-Akt1. Protein G beads were added with mixing for 1.5 hr. PDK1 and Akt1 levels were determined by western blot. In control experiments, 100 μg of Akt-enriched, PDK-depleted extract and 100 μg of a control extract depleted for Akt were mixed in the presence or absence of Aβ42 (up to 5 μM) and subjected to the same analyses.

Aβ42: synthetic 42 amino acid β-amyloid peptide, forward sequence, freshly prepared, predominantly monomeric (BioSource)
association between Akt and PDK1 (co-immunoprecipitation): pulled-down less PDK
association between Akt and PDK1 (co-immunoprecipitation) (listed as Aβ1-42): dramatic reduction
pull-down of PDK1 with Akt1 (10 μM, Akt-enriched plus control extracts): abrogated
